In paper PMC3080406, “Efficient Conversion of Phenylpyruvic Acid to Phenyllactic Acid by Using Whole Cells of Bacillus coagulans SDM” (PLoS ONE, 2011):

B1: L-nLDH (Heyndrickxia coagulans) (protein)
chain: MKKVNRIAVVGTGAVGTSYCYAMINQGVAEELVLIDINEAKAEGEAMDLNHGLPFAPTPTRVWKGDYSDCGTADLVVITAGSPQKPGETRLDLVSKNAKIFKGMIKSIMDSGFNGIFLVASNPVDILTYVTWKESGLPKEHVIGSGTVLDSARLRNSLSAQFGIDPRNVHAAIIGEHGDTELPVWSHTNIGYDTIESYLQKGIIDEKTLDDIFVNTRDAAYHIIERKGATFYGIGMSLTRITRAILNNENSVLTVSAFLEGQYGNSDVYVGVPAIINRQGIREVVEIKLNEKEQEQFNHSVKVLKETMAPVL
notes: full-length ldhL in pET-28a, N- and C-terminal His tags kept, expressed in E. coli BL21(DE3), HisTrap purified
B2: D-nLDH (Heyndrickxia coagulans) (protein)
chain: MRKVVAYETRADEFPLFQKFARKFDLDIKYIDDVLTPETAMEAKGAEAVTILGNYPVGSGTFKALRDVGVKYIGLRTAGNNHIDQEAAKAYGIRFSNVAYSPYCVADFATMLILMCVRKAKQILSRVEAQDFSVEGIQGREMRNLTIGIIGAGRIGSIVAKNLSGFGCNLIAHDTVERDELRGILKYVSLDELLEESDVITIHTPLFESTYHMINQERIAKIKDGVCIINCSRGAEVDTYALIAGIEAGKAGAAGIDVLEDEEGIFHYDRRTDILDHRQLAILRSFPNVIVTPHTAFYPNQAVSDMAEMALTSLVSFVETGKSRWEIKS
notes: full-length ldhD in pET-28a, N- and C-terminal His tags kept, expressed in E. coli BL21(DE3), HisTrap purified

Key:
Experiment in all cases: NADH oxidation assay
Format in all cases: biochemical, Heyndrickxia coagulans
NADH oxidation assay [1] = substrate: CC(=O)C(=O)O; conditions: 0.2 mM NADH, 5 mM FDP (fructose 1,6-bisphosphate), 50 mM Tris-HCl pH 7.0, 50°C
From the text: (§1) NADH oxidation assay on L-nLDH

NADH oxidation assay [2] = substrate: O=C(O)C(=O)Cc1ccccc1; conditions: 0.2 mM NADH, 5 mM FDP (fructose 1,6-bisphosphate), 50 mM Tris-HCl pH 7.0, 50°C
From the text: as §1

NADH oxidation assay [3] = substrate: CC(=O)C(=O)O; conditions: 0.2 mM NADH, 50 mM Tris-HCl pH 7.0, 50°C, no FDP
From the text: (§2) NADH oxidation assay on D-nLDH

NADH oxidation assay [4] = substrate: O=C(O)C(=O)Cc1ccccc1; conditions: 0.2 mM NADH, 50 mM Tris-HCl pH 7.0, 50°C, no FDP
From the text: as §2

Protein | Km (NADH oxidation assay [1]) | Vmax (NADH oxidation assay [1]) | kcat (NADH oxidation assay [1]) | kcat/Km (NADH oxidation assay [1]) | Km (NADH oxidation assay [2]) | Vmax (NADH oxidation assay [2]) | kcat (NADH oxidation assay [2]) | kcat/Km (NADH oxidation assay [2]) | Km (NADH oxidation assay [3]) | Vmax (NADH oxidation assay [3]) | kcat (NADH oxidation assay [3]) | kcat/Km (NADH oxidation assay [3]) | Km (NADH oxidation assay [4]) | Vmax (NADH oxidation assay [4]) | kcat (NADH oxidation assay [4]) | kcat/Km (NADH oxidation assay [4])
B1 | 2.6 mM | 1800 µmol/min/mg | 1170 s⁻¹ | 450000 M⁻¹ s⁻¹ | 4.3 mM | 72.6 µmol/min/mg | 47.2 s⁻¹ | 11000 M⁻¹ s⁻¹ | – | – | – | – | – | – | – | –
B2 | – | – | – | – | – | – | – | – | 2.2 mM | 33.7 µmol/min/mg | 23.6 s⁻¹ | 11000 M⁻¹ s⁻¹ | 4.4 mM | 23.5 µmol/min/mg | 16.5 s⁻¹ | 3900 M⁻¹ s⁻¹
